Measurements from PMC2674214 (PLoS ONE, 2009).

Columns and labels:
[1] = target: T1, hemagglutinin (HA) of A/Anhui/1/2005 (H5N1) virus (Influenza A virus A/Anhui/1/2005 (H5N1), UniProt Q1WDM0); experiment: ELISA; settings: one partner purified
rHA1 of AH/1/05 virus = target: T2, rHA1 of AH/1/05 virus (Influenza A virus A/Anhui/1/2005 (H5N1), UniProt Q1WDM0, strain); experiment: immunostaining of cells or tissue; settings: one partner purified
T2 construct: source: SF-9 cells infected with recombinant baculovirus (pAcUW51), on fixed cells

rHA2 of AH/1/05 virus = target: T3, rHA2 of AH/1/05 virus (Influenza A virus A/Anhui/1/2005 (H5N1), UniProt Q1WDM0, strain); experiment: immunostaining of cells or tissue; settings: one partner purified
T3 construct: source: SF-9 cells infected with recombinant baculovirus (pAcUW51), on fixed cells

[2] = target: T1, hemagglutinin (HA) of A/Anhui/1/2005 …; experiment: immunostaining of cells or tissue; settings: one partner purified
[3] = target: T4, rHA of AH/1/05 virus (full length HA) (Influenza A virus A/Anhui/1/2005 (H5N1), UniProt Q1WDM0); experiment: immunostaining of cells or tissue; settings: one partner purified
T4 construct: source: SF-9 cells infected with recombinant baculovirus (pAcUW51), on fixed cells

[4] = target: rHA of clade 0 H5N1 virus A/HongKong/156/97 (Influenza A virus A/Hong Kong/156/1997 …, UniProt O56140); experiment: ELISA

B1: AVFluFab03 (Fab, V domains shown)
VH: LESGGGLVQPGGSLRVSCTNSGFTFSDYAMSWVRQAPGKGLEWVSAISGNGGSSTYYADSVKGRFTISRDNSKNTMYLQMNSLRAEDTAVYYCVRDDSYDGGGQYGLHNWFDSWGQGTLVTV
VL: ELTQPPSVSGAPGQRVTISCTGSSSNIGAGYDVHWYQQLPGTAPKLLIYGNSNRPSGVPDRFSGSKSGTSASLAITGLQAEDEADYYCQSYDSSLVVFGGGTKLTVL
notes: also called Fab clone representing 25 of the 43 selected Fab clones; source: phagemid vector pComb3H, crude Fab antibody preparations
**Q.** Does B1 bind [1]?
**A.** Result: binds

B2: AVFluIgG03 (antibody, V domains shown)
VH: LESGGGLVQPGGSLRVSCTNSGFTFSDYAMSWVRQAPGKGLEWVSAISGNGGSSTYYADSVKGRFTISRDNSKNTMYLQMNSLRAEDTAVYYCVRDDSYDGGGQYGLHNWFDSWGQGTLVTV
VL: ELTQPPSVSGAPGQRVTISCTGSSSNIGAGYDVHWYQQLPGTAPKLLIYGNSNRPSGVPDRFSGSKSGTSASLAITGLQAEDEADYYCQSYDSSLVVFGGGTKLTVL
notes: also called rhAb AVFluIgG03; AVFluIg03; source: SF9 cells, purified on a Protein A column
**Q.** Does B2 bind (rHA1 of AH/1/05 virus)?
**A.** Result: binds

**Q.** Does B2 bind (rHA2 of AH/1/05 virus)?
**A.** Result: no binding

**Q.** Does B2 bind [2]?
**A.** Result: binds

**Q.** Does B2 bind [3]?
**A.** Result: binds

**Q.** Does B2 bind [4]?
**A.** Result: no binding
